Assay [1] deals with T1, FGFR3 (plate-coated) (UniProt P22607 23-375).
T1 construct: also called Fibroblast Growth Factor Receptor 3
T1 sequence (looked up): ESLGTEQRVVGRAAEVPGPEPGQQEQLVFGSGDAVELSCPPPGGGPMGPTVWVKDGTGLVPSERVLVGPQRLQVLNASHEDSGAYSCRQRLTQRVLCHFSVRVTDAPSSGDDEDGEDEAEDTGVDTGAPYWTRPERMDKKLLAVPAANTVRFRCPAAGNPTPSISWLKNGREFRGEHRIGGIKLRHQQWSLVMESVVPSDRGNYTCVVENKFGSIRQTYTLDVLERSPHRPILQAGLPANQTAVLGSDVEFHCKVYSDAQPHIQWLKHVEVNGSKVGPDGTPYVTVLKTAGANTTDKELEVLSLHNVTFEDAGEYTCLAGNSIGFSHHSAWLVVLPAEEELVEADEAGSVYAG
In words: ELISA on FGFR3-coated wells after 1 h at 80 C and 1 h at room temperature. On the technique in general: An ELISA detects its analyte on a solid surface through an enzyme-linked reagent.

Assay [2] has as its target T1, FGFR3 (plate-coated). Nature of the assay: ELISA: FGFR3 coated at 2 ug/ml, protein titrated, bound protein detected with NKG2D-Fc and anti-Fc-HRP.
Assay [3] has as its target T1, FGFR3 (plate-coated). Nature of the assay: ELISA on FGFR3-coated wells after 1 h at 70 C and 1 h at room temperature.
The target of assay [4] is T2, MICv25-Fc.
T2 construct: also called MIC-v25 α1-α2 domain ligand
Nature of the assay: ELISA: ligand-Fc coated at 2 ug/ml, biotinylated NKG2D Y152A, Y199A ectodomain titrated, streptavidin-HRP.

Assay [5] has as its target T3, ULBP4-Fc (UniProt Q8TD07 31-225).
T3 construct: Bought, R&D Systems; not shown: Fc part of the bought reagent
T3 sequence (looked up): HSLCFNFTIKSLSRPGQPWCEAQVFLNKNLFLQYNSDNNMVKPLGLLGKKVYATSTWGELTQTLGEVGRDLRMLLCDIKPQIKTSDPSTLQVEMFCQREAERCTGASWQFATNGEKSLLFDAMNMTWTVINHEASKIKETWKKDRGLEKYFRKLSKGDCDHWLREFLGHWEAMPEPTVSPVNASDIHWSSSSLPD
The description is as above.

Assay [6] addresses T4, ULBP2-Fc (UniProt Q9BZM5 26-217).
T4 construct: Bought, R&D Systems; not shown: Fc part of the bought reagent
T4 sequence (looked up): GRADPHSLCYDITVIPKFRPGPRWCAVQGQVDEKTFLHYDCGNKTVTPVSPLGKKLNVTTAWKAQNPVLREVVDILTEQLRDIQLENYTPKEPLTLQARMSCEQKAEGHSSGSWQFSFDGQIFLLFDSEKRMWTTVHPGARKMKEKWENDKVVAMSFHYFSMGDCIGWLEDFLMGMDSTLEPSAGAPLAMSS
The assay is described as above.

In assay [7] the target is MICwed-Fc. The description is as above.
The target of assay [8] is T5, ULBP1-Fc (UniProt Q9BZM6 26-216).
T5 construct: Bought, R&D Systems; not shown: Fc part of the bought reagent
T5 sequence (looked up): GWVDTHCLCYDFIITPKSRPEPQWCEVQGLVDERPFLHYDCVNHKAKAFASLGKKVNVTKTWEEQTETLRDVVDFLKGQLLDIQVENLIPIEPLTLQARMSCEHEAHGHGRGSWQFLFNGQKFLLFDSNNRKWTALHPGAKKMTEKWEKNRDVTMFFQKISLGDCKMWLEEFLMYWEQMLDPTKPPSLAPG
Described as above.

For assay [9], the target named is T6, ULBP3-Fc (UniProt Q9BZM4 30-217).
T6 construct: Bought, R&D Systems; not shown: Fc part of the bought reagent
T6 sequence (looked up): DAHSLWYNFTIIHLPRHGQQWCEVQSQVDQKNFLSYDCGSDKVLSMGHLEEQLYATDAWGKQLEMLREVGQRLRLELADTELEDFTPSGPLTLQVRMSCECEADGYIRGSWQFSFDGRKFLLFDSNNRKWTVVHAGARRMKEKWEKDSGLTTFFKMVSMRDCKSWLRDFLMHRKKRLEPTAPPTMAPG
The description is as above.

The target of assay [10] is T7, MICB-Fc (UniProt Q29980 23-298).
T7 construct: Bought, R&D Systems; not shown: Fc part of the bought reagent
T7 sequence (looked up): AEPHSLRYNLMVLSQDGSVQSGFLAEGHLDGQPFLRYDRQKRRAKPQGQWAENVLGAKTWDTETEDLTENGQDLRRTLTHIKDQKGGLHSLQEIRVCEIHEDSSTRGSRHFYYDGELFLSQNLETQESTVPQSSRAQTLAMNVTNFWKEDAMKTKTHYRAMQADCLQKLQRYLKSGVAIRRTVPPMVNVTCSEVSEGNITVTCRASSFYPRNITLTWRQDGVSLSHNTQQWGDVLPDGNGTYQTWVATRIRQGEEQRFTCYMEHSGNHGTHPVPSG
Described as above.

Assay [11] concerns the target T8, MICA-Fc.
T8 construct: also called natural α1-α2-α3-Fc fusion
T8 chain: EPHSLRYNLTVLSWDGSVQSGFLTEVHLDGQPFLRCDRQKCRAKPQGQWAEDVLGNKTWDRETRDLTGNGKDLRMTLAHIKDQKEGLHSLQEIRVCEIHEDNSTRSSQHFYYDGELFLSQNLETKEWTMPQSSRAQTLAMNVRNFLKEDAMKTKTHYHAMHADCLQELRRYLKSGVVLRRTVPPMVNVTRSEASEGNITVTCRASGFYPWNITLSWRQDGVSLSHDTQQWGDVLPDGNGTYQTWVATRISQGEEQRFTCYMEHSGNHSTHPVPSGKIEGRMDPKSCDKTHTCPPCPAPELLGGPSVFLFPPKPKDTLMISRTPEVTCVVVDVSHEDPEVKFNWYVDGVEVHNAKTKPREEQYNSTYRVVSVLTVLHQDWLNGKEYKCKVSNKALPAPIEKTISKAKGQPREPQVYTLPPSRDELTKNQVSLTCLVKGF
Described as above.

Assay [12] addresses T2, MICv25-Fc. Nature of the assay: ELISA: ligand-Fc coated at 2 ug/ml, biotinylated NKG2D Y199A ectodomain titrated, streptavidin-HRP.
For assay [13], the target named is T3, ULBP4-Fc. Described as above.
For assay [14], the target named is T4, ULBP2-Fc. The description is as above.
Assay [15] has as its target MICwed-Fc. The description is as above.
Assay [16] deals with T5, ULBP1-Fc. The assay is described as above.
For assay [17], the target named is T6, ULBP3-Fc. Described as above.
Assay [18] concerns the target T7, MICB-Fc. The description is as above.
Assay [19] addresses T8, MICA-Fc. The assay is described as above.

Here are results for three molecules from patent US20180134765A1 (AVIDBIOTICS, published 2018).

In general, EC50 (read off the curve) refers to the concentration giving half of the maximal effect. The low end stands for greater potency, the high end for weaker potency.

B1: MICA-α3-iFv.2 (designed binder)
chain: EPHSLRYNLTVLSWDGSVQSGFLTEVHLDGQPFLRCDRQKCRAKPQGQWAEDVLGNKTWDRETRDLTGNGKDLRMTLAHIKDQKEGLHSLQEIRVCEIHEDNSTRSSQHFYYDGELFLSQNLETKEWTMPQSSRAQTLAMNVRNFLKEDAMKTKTHYHAMHADCLQELRRYLKSGVVLRRTVPPMVQVTRSEASGGSGDRVTITCRASQDVSTAVAWYQQKPGKAPKLLIYSASFLYSGVPSRFSGSGSGTDFTLTISSLQPEDFATYYCQQSYTTPPTFGQGTKVEIKGGSSRSSSSGGGGSGGGGEVQLVESGGGLVQPGGSLRLSCAASGFTFTSTGISWVRQAPGKGLEWVGRIYPTNGSTNYADSVKGRFTISADTSKNTAYLQMNSLRAEDTAVYYCARTYGIYDLYVDYTEYVMDYWGQGTLVTVSSGGSSRSSSSGGGGSGGGGDIQMTQSPSSLSASGGSGQITVTCRASGFYPWNITLSWRQDGVSLSHDTQQWGDVLPDGQGTYQTWVATRISQGEEQRFTCYMEHSGQHSTHPVPSGKGSHHHHHH
notes: His-tagged, monomeric, made in insect cells; also called sMICA-α3-iFv.2
With B1, the concentration giving a half-maximal response (EC50 (read off the curve)) with FGFR3 (plate-coated) [1] was around 5 nM; with FGFR3 (plate-coated) [2] it was around 2 nM; in the assay with FGFR3 (plate-coated) [3], around 5 nM.

B2: Y152A plus Y199A NKG2D ectodomain (receptor)
chain: EPHHHHHHGLNDIFEAQKIEWHENSLFNQEVQIPLTESYCGPCPKNWICYKNNCYQFFDESKNWYESQASCMSQNASLLKVYSKEDQDLLKLVKSAHWMGLVHIPTNGSWQWEDGSILSPNLLTIIEMQKGDCALYASSFKGAIENCSTPNTYICMQRTV
modifications: biotin on the avitag sequence (BirA)
notes: Expressed with His-avitag; also called non-natural NKG2D double mutant Y152A and Y199A
With B2, the binding result in the assay with MICv25-Fc [4], in the assay with ULBP4-Fc [5], with ULBP2-Fc [6], with MICwed-Fc [7], with ULBP1-Fc [8] and with ULBP3-Fc [9] was “no binding (tested: 2000 nM)” in each case. The binding result in the assay with MICB-Fc [10] and with MICA-Fc [11] was “no binding (tested: 2000 nM)” throughout.

B3: Y199A NKG2D ectodomain (receptor)
chain: EPHHHHHHGLNDIFEAQKIEWHENSLFNQEVQIPLTESYCGPCPKNWICYKNNCYQFFDESKNWYESQASCMSQNASLLKVYSKEDQDLLKLVKSYHWMGLVHIPTNGSWQWEDGSILSPNLLTIIEMQKGDCALYASSFKGAIENCSTPNTYICMQRTV
modifications: biotin on the avitag sequence (BirA)
notes: Expressed with His-avitag; also called non-natural NKG2D mutant Y199A
In the case of B3, the binding result with MICv25-Fc [12], in the assay with ULBP4-Fc [13], with ULBP2-Fc [14], in the assay with MICwed-Fc [15], in the assay with ULBP1-Fc [16] and with ULBP3-Fc [17] was “no binding (tested: 2000 nM)” each time. The binding result with MICB-Fc [18] and with MICA-Fc [19] was “no binding (tested: 2000 nM)” throughout.
